US20260184782A1 (published 2026)

B1: hTIGIT (receptor)
chain: MMTGTIETTGNISAEKGGSIILQCHLSSTTAQVTQVNWEQQDQLLAICNADLGWHISPSFKDRVAPGPGLGLTLQSLTVNDTGEYFCIYHTYPDGTYTGRIFLEVLESSVAEHGARFQIP
B1 was tested, and the Kd (TIGIT55-11) was 327 nM, the Kd (TIGIT55-13) was 112 nM and the Kd (TIGIT55-01) was 15.9 nM. For the same binder, the Kd (TIGIT55-05) was 97.6 nM, the Kd (TIGIT55-06) was 153 nM and the Kd (TIGIT55-14) was 139 nM.
